Where a chain is given by its changes, count along the chain named.
T1: human CEACAM5 (human, UniProt P06731 35-685)
T1 construct: whole, on cells; Target on MKN-45 (DSMZ ACC409) and LS180 (ATCC CL-187) cells; also called carcinoembryonic antigen-related cell adhesion molecule 5; CD66e
T1 sequence (looked up): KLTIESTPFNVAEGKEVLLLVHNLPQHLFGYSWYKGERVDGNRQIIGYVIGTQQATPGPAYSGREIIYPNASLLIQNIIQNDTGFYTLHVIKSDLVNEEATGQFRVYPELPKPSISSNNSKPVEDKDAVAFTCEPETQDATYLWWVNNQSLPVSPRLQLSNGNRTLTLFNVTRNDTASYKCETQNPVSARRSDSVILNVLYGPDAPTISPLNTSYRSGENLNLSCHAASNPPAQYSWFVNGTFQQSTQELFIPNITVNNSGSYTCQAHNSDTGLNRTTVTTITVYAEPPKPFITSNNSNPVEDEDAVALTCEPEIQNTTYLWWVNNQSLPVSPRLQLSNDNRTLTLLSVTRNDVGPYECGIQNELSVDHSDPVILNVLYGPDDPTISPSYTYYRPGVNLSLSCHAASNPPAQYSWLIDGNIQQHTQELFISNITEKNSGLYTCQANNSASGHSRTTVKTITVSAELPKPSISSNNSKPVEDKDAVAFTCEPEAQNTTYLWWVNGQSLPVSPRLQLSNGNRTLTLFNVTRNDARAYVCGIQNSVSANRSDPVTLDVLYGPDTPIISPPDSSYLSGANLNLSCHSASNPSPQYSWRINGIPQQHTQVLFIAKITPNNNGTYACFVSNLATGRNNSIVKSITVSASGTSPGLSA

B1: T84.66-LCHA (P1AH2338) (antibody, V domains shown)
VH: QVQLVQSGAEVKKPGSSVKVSCKASGFNIKDTYMHWVRQAPGQGLEWMGRIDPANGNSKYVPKFQGRVTITADTSTSTAYMELSSLRSEDTAVYYCAPFGYYVSDYAMAYWGQGTLVTVSS
VL: EIVLTQSPATLSLSPGERATLSCRAGESVDIFGVGFLHWYQQKPGQAPRLLIYRASNRATGIPARFSGSGSGTDFTLTISSLEPEDFAVYYCQQTNEDPYTFGQGTKLEIK
notes: also called humanized variant 1
B2: P1AH2369 (antibody, V domains shown)
VH: B1 VH
VL: B1 VL with V34N, G35S
B3: P1AH2368 (antibody, V domains shown)
VH: B1 VH
VL: B1 VL with I31S, F32Y
B4: P1AH2349 (antibody, human IgG1, V domains shown)
VH: EVQLVESGGGLVQPGGSLRLSCAASGFNIKDTYMHWVRQAPGKGLEWVGRIDPANGNSKYADSVKGRFTISADTSKNTAYLQMNSLRAEDTAVYYCAPFGYYVSDYAMAYWGQGTTVTVSS
VL: B1 VL
notes: also called rehumanized improved expression variant
B5: P1AH2351 (antibody, human IgG1, name in Kabat numbering, V domains shown)
VH: B1 VH with P98A
VL: B1 VL
notes: Kabat positions
B6: P1AH2354 (antibody, human IgG1, name in Kabat numbering, V domains shown)
VH: B1 VH with P98S
VL: B1 VL
notes: Kabat positions
B7: P1AH2366 (antibody, human IgG1, name in Kabat numbering, V domains shown)
VH: B1 VH
VL: B1 VL with F32Y
notes: Kabat positions
B8: P1AH2357 (antibody, name in Kabat numbering, V domains shown)
VH: B1 VH with D31S
VL: B1 VL
B9: P1AH2373 (antibody, human IgG1, name in Kabat numbering, V domains shown)
VH: B1 VH
VL: B1 VL with D98N
B10: P1AH2359 (antibody, human IgG1, name in Kabat numbering, V domains shown)
VH: B1 VH with E82Q
VL: B1 VL
B11: P1AH2352 (antibody, human IgG1, name in Kabat numbering, V domains shown)
VH: B1 VH with P98T
VL: B1 VL
notes: Kabat positions
B12: P1AH2370 (antibody, human IgG1, name in Kabat numbering, V domains shown)
VH: B1 VH
VL: B1 VL with D30S
B13: P1AH2350 (antibody, name in Kabat numbering, V domains shown)
VH: B1 VH with P98V
VL: B1 VL
B14: P1AH2361 (antibody, human IgG1, name in Kabat numbering, V domains shown)
VH: B1 VH with K30T
VL: B1 VL
B15: P1AH2364 (antibody, human IgG1, name in Kabat numbering, V domains shown)
VH: B1 VH
VL: B1 VL with A55G
B16: P1AI5026 (antibody, human IgG1, name in Kabat numbering, V domains shown)
VH: B4 VH
VL: B1 VL with A55G, Q93G, N96T
B17: P1AI5030 (antibody, human IgG1, name in Kabat numbering, V domains shown)
VH: B4 VH
VL: B1 VL with A55G, V89Y, Q93G
B18: P1AI5013 (antibody, human IgG1, V domains shown)
VH: B4 VH
VL: B1 VL with I31H
B19: P1AI5029 (antibody, human IgG1, name in Kabat numbering, V domains shown)
VH: B4 VH
VL: B1 VL with A55G, Q93G, N96K
B20: P1AI5021 (antibody, human IgG1, name in Kabat numbering, V domains shown)
VH: B4 VH
VL: B1 VL with A55G, Q93G, D98P
B21: P1AI5032 (antibody, human IgG1, name in Kabat numbering, V domains shown)
VH: B4 VH
VL: B1 VL with I31H, A55G
notes: Double mutant of T84.66-LCHA VL
B22: P1AI5028 (antibody, human IgG1, name in Kabat numbering, V domains shown)
VH: B4 VH
VL: B1 VL with A55G, Q93G, N96H
B23: P1AI5024 (antibody, human IgG1, name in Kabat numbering, V domains shown)
VH: B4 VH
VL: B1 VL with A55G, Q93G, N96Y
B24: P1AI5025 (antibody, human IgG1, name in Kabat numbering, V domains shown)
VH: B4 VH
VL: B1 VL with A55G, Q93G, N96S
B25: P1AI5019 (antibody, human IgG1, name in Kabat numbering, V domains shown)
VH: B4 VH
VL: B1 VL with A55G, Q93G, P99Y
B26: P1AI5023 (antibody, human IgG1, name in Kabat numbering, V domains shown)
VH: B4 VH
VL: B1 VL with A55G, Q93G, D98H
B27: P1AI5027 (antibody, human IgG1, name in Kabat numbering, V domains shown)
VH: B4 VH
VL: B1 VL with A55G, Q93G, N96Q

What follows are binders tested against T1, human CEACAM5 (assay: FACS on MKN-45 cells expressing human CEACAM5).
Description: The cellular binding assay was performed as follows.
(§1) 10 μl of a 1×10⁴ MKN-45 (DSMZ ACC409) cell suspension in assay buffer was seeded in all Wells of a 384 well polypropylene plate (Weidmann #23490-101). Then 10 μl of antibodies diluted in assay buffer (double concentrated), at a start concentration of 100 μg/ml, serially diluted 1:4 were added to the plate. After 90 minutes incubation at 4° C., 60 μl assay buffer was added followed by a centrifuge step (330×g, 5 min) and an aspirating step (BioTek washer 405H) where 60 μl of supernatant were discarded. 20 μl of detection antibody (Alpaca anti rabbit IgG Chromotek #srbAF647-1) diluted in assay buffer (double concentrated) to a final concentration of 0.5 μg/ml was added to all Wells followed by 1 hour incubation time at room temperature. The cells were then subjected to two washing steps with 40 μl and 60 μl assay buffer as described above and then resuspended in 20 μl assay buffer. Cell binding was measured on an iQue Screener Plus high throughput FACS device from Sartorius/Intellicyt.

EC50 [nM] | Binder
5.3 | B1
5.5 | B2
2.5 | B3
7.2 | B4
39.1 | B5
20.4 | B6
2.7 | B7
2.3 | B8
2.5 | B9
12.9 | B10
21.9 | B11
3.1 | B12
30.1 | B13
21.9 | B14
1.9 | B15

Target: T1, human CEACAM5
Test: FACS on MKN-45 cells expressing human CEACAM5
Remark: another data set of the same source
Description: as §1

EC50 [µg/mL] | Binder
0.989 | B1
1.11 | B4
1.83 | B16
11.2 | B17
0.685 | B18
1.92 | B19
1.62 | B20
1.53 | B21
7.51 | B22
11.5 | B23
2.44 | B24
2.49 | B25
7.21 | B26
25.1 | B27
